Results as given in the DeepSol protein solubility set.

Experiment: soluble on expression in E. coli; label from the status in PepcDB or PDB records

Sequence | soluble on expression in E. coli
RSFLPPFNEGSFTINVSTLPGISLEESDRMGRMAEEILLSVPEVQTVGRKTGRAELDEHALGVNVSEIEVPFVLKDRSKDEVLADIREKLKVLPGVNIEIGQPISHRIDAMLSGTRANIAIKLFGPDLNRLFAIGNQIKTSVHDVKGVADLNVEQQVERPQLKIVPKREMLAKYGLTPASFAEIVNVMLAGEVVSQVYEGNRSFDLSLKVNDESRESADRIRDLIIDAGGRKIPFAYVADIVSASGPNTINRENVSRKIVVSANVAGRDLRSVVNDIQERIDADITLPEGYHIEYGGQFESEQAASRT | not soluble
MRVDVVSRDIIKPSSPTPNHLKKFKLSLLEQLGPTIFGPMVFFYSANNSIKPTEQLQMLKKSLSETLTHFYPLAGRLKGNISIDCNDSGADFLEARVNSPLSNLLLEPSSDSLQQLIPTSVDSIETRTRLLLAQASFFECGSMSIGVCISHKLADATSIGLFMKSWAAISSRGSIKTIGAPVFDTVKIFPPGNFSETSPAPVVEPEIMMNQTLSKRFIFDSSSIQALQAKASSFEVNQPTRVEAVSALIWKSAMKATRTVSGTSKPSILANSVSLRSRVSPPFTKNSIGNLVSYFAAKAEEGINQTKLQTLVSKIRKAKQRFRDIHIPKLVGNPNATEIICSYQKEAGDMIASGDFDFYIFSSACRFGLYETDFGWGKPVWVGFPSVRQKNIVTLLDTKEAGGIEAWVNLNEQEMNLFEQDRELLQFASLNPSVIQPFLHVL | soluble
MLKSVLDALENGRLVELPDNDKSDALQFLATILEAVPSIPAGSNIVEIVLEHEKNSNTSLGFGWACPHARVNFDGDLCCAIGWSPAGIDYGIAGEPLVRLVVMFFVPENQRNTYLKEVSTLARVLKSNPEFQNLEPIGDLDQVRNTLLDMTHQAMSEGGKNYRARMIQLDTLTKSAGDAGHYWLKGMQIDALLVVAGPDIKPLVLSQNAELSRLATQDTQLVPAIASGNHYELQGWQIVRRSSTAYAGERVIYDCLAIKTRQGQGAPEAGG | soluble
MRRGSGNPERPSLSRDGLRVPPPCPGKRGPGHFSGYHGGMEGIRRAAQRAAEEFLQAFPMAPGSLFVLGGSTSEVLGERVGTRPSLEAAHAVLEGLLPPLLERGVHVAVQACEHLNRALVVERETARAFGLEEVAVFPHPKAGGALATAAFLRFRDPVMVESLKAQAHGGMDIGGVLIGMHLRPVAVPLRLSVRKIGEAVLLAAKTRPKLVGGARAVYTREEMLKKLEEFLPKPP | soluble
MAHHHHHHMGNTNSSADRSNADDRGVHSEFMYRYETTKKLKLSYMMLKKNVATAVMTMEVTPQHLRDVGTGYSNVCACLKHGGSGGTNSCIQGQAAGREQASISRSRIDREFADESYKGFQTFCEAMDDIKAGVCVTSRTAIHERITVELDRMVLTAERVLKQGRKTMRSMAHFTKVARQVSRRERAAVDQGKDLSSSKRYAKAVKERNEKESLYKTELEAFDQLYEHVMVVSQEFCSSTTDIFLDCIVGYYREIVATIDVSDTPQCSRLQSRFRSREREVVLHQASDAGFCAMPAGHMDGSKSLSSTVPLKWD | soluble
MSLKIDSIIFDLDGTLWNSIEGVCEAWKVVLKRHSNINKIITPKDIKASMGLQIDEIGKLLFPEEDEKMQLQLMNECCDEEKLYLGEHGGKLFAKLEPTLNKLSQKYKLFIVSNCEDGYIQSFFKAHGLNKYFTDFECSGVTGLSKGENNKLIIKRNSLKNPVYVGDTLKDFESAKIANIPFVYARYGFGDVNEYDYVIDSFEEMLTLDEGHHHHHH | soluble
MSGQHRTRVGGVILAAGRSSRYESGNKLLATIDGKAVVRQVTETACKSSLSDAVAVLGHEKVAVAAALDGLSLSVQHNDEYATGQSASVRHGVEFARSAGWDAALFLLGDMPFVRVETIEELLEAYRTGTATVVVPEHEGRRGNPVLFDNCHFDSLASVSGDRGGRDIIETTEKTAFIEVSDPGVHWDIDTDADLAEFTDRRDSLLEHHHHHH | not soluble
MSLTTLVNLTPTKEQRKYQEDELIAFLDLQMNTFTANSENNDEAPSLLKKETSFNTDIWIENLFKFGFKKVILTAKLNNGICLWQSNCSKVNINTFSLENNYDDLVKKVSKSCKKFGLKFGIHLTLKDYLTLNLTPEEYDNYYTSQLKELMTNYSQISEVIMDMTSLDEYYDSLDFERYFKVVKEINPKCMISSPIGPDVRWTYYSDIESSKNYFYSSINLDLLKEDFNNEEIRKGNIYGDTWIVGESIYSLSDCLNHNKDSLSNLKHVYNNSLGRNTNLVLVLSPNTDGLLNHNELSLLSDFSKYIKETFSNNLIKGSSILATNSSSSDSYNLIDDYKKSYWIANENAVNPYIEIDFKTITEFNILEIREWIAEGQNVEEFKVYAYNNGWFELYNGTSIGYRHIAKLNNIKTDKIKISFTKYKNPPMINHIGAYLGEGHHHHHH | soluble
MSIRNSASRDDTSASVEDSILDAARSCILDFGLRRTTLAEVARRAGVSRPTVYRRWSDTRAVVADLMTREIAAVMPEFSVEESVHRQLVDAVVHVSTEVRDHPLFVKILRSDQELFTTYILERLGTSQRAIIDQVAFAVSTGQDQGSIRAGDSRHIATMVLLIAQSAVQSAVMVAEELPGDALTEQLRHAVGAYLAPDVAVTHPTDRGDR | not soluble
MGSDKIHHHHHHMTRIALTHVTTYRYGAPVTLGEHKMMFRPRDSHDLHIVEATLVLSPVAEVRWMHDVFGNSITIADFQGASTDFLRFESKILLDHFGLSEPTYPIAAYAETFPFTYDADLVADLGRTNERHYPDPDHRLDAWARRFLDEPGETATLEMLSAMNRAISAEFSYAARDTEGTQTPLETLERGSGSCRDFALLMMEAVRSLGLAARFVSGYLYDPALDGRNASGTVGAGATHAWLQVYLPGAGWVEFDPTNALVGGENLIRVAVTRDPSQAVPITGSFAGPGNAFLSMEVEVTLHRQDQNIQVA | not soluble
MSEEDWPSPKFREHVIQRLEPELARNRQNAPNLPVPGDARQVEEYVFAKCMSKDEYMRTIAKVINAINCNSKSAAVPSVLQPSQFHSPPCTTAGNTPAGGTPGYRAPVPPDPQPTSAQARNPPVTVATTQASTTPSAPNPPGGLPAPSASATAAVAAAVASFPSPDTSIRPGGQITPGSQAPGGGPTPAPNVPFPNGSSQMNGGPAMGQPPPQMGAPNMGGPPNGYGGYGMMNGPPGSGAPMGGNPYNQQIKKDMDQARPWDPSAHMYQQQPQWGAMPPQQPHGYPGRPMNGQGATPTGPSSVLESLINQPQQYPGHHNQMGPPGDRNVAAQRAAAQQQQQQQQQQQQQRPGMVPNQGMMSSEDQTVYSAKLRNMRGSCDSLRTRARQCRHEGNHEAAHKLEVMLSVLEGKRVVSLEYLNHLEMWIARKQDFLNIAPMSQNQNHMGMNDPMMNGEHAMLGNGQVPNPYGGHPGYGHQQYMGPPPPHMQMHQPPMWHQQQHQQQQRMMPQDHMMMQGGGGPVHGMYRGDMGHDPMTSPVNNHRHAPYPNPAAMRNNMRMPNGPGPIGRDRNSMSGSSMSGPSSGAPSMNPMGTPNQKMGTPGSMGGMSGLDDLNYDDFLPNPTPIDALQPTLHVGQNSMNAGPPVQRSNLNETARKELQILDARFEIDPNHQRHDANHIIVVCKIRNQQFPPLRLVVPTTYPAGNVTVDRAVIDLDAYLYDDLQNSVYERLSRPGLSSITDYLNAWEEQVNQYQNQTSGGLDVAFNVGNDFFYDNLNL | not soluble
MGSDKIHHHHHHMNNSEKMLVCLDQQDLDKADKYFKRALVQDDSETLLSLAAYLEGIGFFPQARQIYEQVKEEFPEVLINLAQIAFEDGLVEEAFRYLEEISEDSSIYVEALLVKADLYQAEGLSDVAREKLLEASHLSDKPIILFGLAELDMELELFNEAISYYAQLDNREIYELTGISTYQRIGIAYASLGKFEAAIEFLEKAVELEYDDQTVFELAALLFEREEYQKANLYFKQLDTINPDFEGYEYAYAQSLHAEHKIDDALAMTQKGLAKNDFDANLLFQASQYAYELHDEAGAEDYLLRAKEVADDSNELALRLSNLYLEQERFEEVVALFDEEVDNVLARWNKAKAYQALERDDEAIALYDELAGELAENPEFLADYVAVLRQLGRLDEAKEQASRYIQLVPDDLAMQEFLNEE | not soluble
EGFKKLELNYMKERSYEEAKEYLDRALKNSVLKRVRGLDKVGIICSGGVDSSLIAKLASLYCEVILYAVGTENSEDLIYAERLAKDLNLKLRKKIISEEEYEEYVFKVAKAIDEVDLMKIGVGIPIYVASEMANEDGLKVVLSGQGADELFGGYARHERIYRERGEEELKKELLKDVYNLYKVNLERDDHCTMANGVELRVPFLDEEVVEIALSIPIEYKMSELSNRPYAESNISLKSEPINGLKNTNLNIKCVRSVRKKILRDVASQYLPDYIAYRPKKAAQYGSG | soluble
MGKAKVPASKRAPSSPVAKPGPVKTLTRKKNKKKKRFWKSKAREVSKKPASGPGAVVRPPKAPEDFSQNWKALQEWLLKQKSQAPEKPLVISQMGSKKKPKIIQQNKKETSPQVKGEEMPAGKDQEASRGSVPSGSKMDRRAPVPRTKASGTEHNKKGTKERTNGDIVPERGDIEHKKRKAKEAAPAPPTEEDIWFDDVDPADIEAAIGPEAAKIARKQLGQSEGSVSLSLVKEQAFGGLTRALALDCEMVGVGPKGEESMAARVSIVNQYGKCVYDKYVKPTEPVTDYRTAVSGIRPENLKQGEELEVVQKEVAEMLKGRILVGHALHNDLKVLFLDHPKKKIRDTQKYKPFKSQVKSGRPSLRLLSEKILGLQVQQAEHCSIQDAQAAMRLYVMVKKEWESMARDRRPLLTAPDHCSDDA | soluble
MDCKELARIFYALSEPKRLCMVKLLLEREELCVCDFMRIFKESQPKISFHLKVLREAGLVTSQKRGKWNYYRLNKEAPVIPCVEKLLKDVKLEEKIQLEVKR | soluble
MGSDKIHHHHHHMSQPPLPAVCTQAASALLPVAIDYPAALALRQMAMQHDDYPKYLLAPEVSALLHYVPDLHRRMLLATLWNTGARINEALALTRGDFSLAPPYPFVQLATLKQRAEKAARTAGRMPSGSQPHRLVPLSDNQYVSELQMMVATLKIPLERRNRRTGRTEKARLWEITDRTVRTWIGEAVEAAAADDVTFSVPVTPHTFRHSYAMHMLYAGIPLKVLQALMGHKSVSSTEVYTKVFALDVAARHRVQFQMPGADAVAMLKGGS | not soluble
MKFPGPLENQRLSFLLEKAITREAQMWKVNVRKMPSNQNVSPSQRDEVIQWLAKLKYQFNLYPETFALASSLLDRFLATVKAHPKYLSCIAISCFFLAAKTVEEDERIPVLKVLARDSFCGCSSSEILRMERIILDKLNWDLHTATPLDFLHIFHAIAVSTRPQLLFSLPKLSPSQHLAVLTKQLLHCMACNQLLQFRGSMLALAMVSLEMEKLIPDWLSLTIELLQKAQMDSSQLIHCRELVAHHLSTLQSSLPLNSVYVYRPLKHTLVTCDKGVFRLHPSSVPGPDFSKDNSKPEVPVRGTAAFYHHLPAASGCKQTSTKRKVEEMEVDDFYDGIKRLYNEDNVSENVGSVCGTDLSRQEGHASPCPPLQPVSVM | not soluble
MGSDKIHHHHHHMAFYPVHKELQNISQSMPQGNFGLWYNKFIPLSDDAFKPSDDKGSNGKGDENRPVDYYFGQYSKLRLNAAETAAILKQKHEDMDDFCANFPPQKYEEIAICATLDSPLITGIGESHPHEVSMVFDHNMGIPYIPASGVKGIVRFAHTISLIPEAMNKAEVIDNVRFDDEADWTSVPHMFGTQKNRGNVIFLDAYPEDIPALHMDIMNPHYSPYYSEGKPPADHHNPTPIKFLTVAKGTKFIFRAVAKKEQNLPQKIRVAFAEALTKEGVGAKIALGYGRFVIDEDGQKVLLKKRKQRHEEKKRRLSPWLDYIELINQVGDWGQFKQIVLDNEKLVEYRKEMDVTEAVRIKALEIRNKWRKSWGASRDEQIATWLQPAGVEWPCIVAGIENPVKEKSADYEKIMQLIDWGAYKSAGIDLSKLPLDALQLLKQKMEEWGCYSKKAKEDKKTAFKKVKDLLRQHQK | not soluble
